Test results published in the DeepSol protein solubility set.

Experiment: soluble on expression in E. coli; label from the status in PepcDB or PDB records

Sequence	soluble on expression in E. coli
MGSDKIHHHHHHMKLSCSQSELNNALQLVSRAVSNRPTHPVLANVLLAADEVTGKLRLTGFDLSLGIQTSISASIDSSGAITLPAKLFGEIVSKLSNDSPLVLTSDETSQQVELTSKSGTYQVRGMLSDDFPELPLVENGTSFKLNPLLLSNAIKSTLFASSTDDAKQLLTGVNLTFDGYGIESAATDGHRLAVLNLNNILSDSKEIDSSIKFEKFSITLPSKSLREVEKFLSTCDISHPINFFIDKGQVVFISVEDIITIRALEGSYPNYSQLLPDTFENELEFDRKEFISSLERIAVLADQHNNVIKVTTDGSANLIKISTDAQDIGTGYESLPVSYKGDSFQIAFNVRYLLDGLKVIDSNLIKLSCNSPTTPAIFSPINSDVNFTYLVMPIQIRN	not soluble
MGSDKIHHHHHHMKLSFEVLEALDAIDRAGTFAEAAVLIHRVPSALSYLVQKAESDLGVILFDRSGRRAQLTEAGRLLVEDGRRLLQAGRELESKVRGVHAGWEAELRLCLDEILPLPSLWPHVRAFYDMELTTRLRLSTEVLGGVWDALVTGRADIAIGAAGEPPHAPNIAARPIGLLRHVFVVAPHHPLAAVEQPLDSDTISSHRGVIISDTSRALEPRSVAIHDGQPVIIVPTLAAKLDLLCEGMAVGMLPAPVVEEAIRQGKLVERRVIGVRDHTTCYLGWREDKTGRALKWWINRLDQIDLISTLFSTRGVAA	not soluble
MGSDKIHHHHHHMKMSEKKEARVVINDLLAEQYANAFKAKEEGRPVGWSTSVFPQELAEVFDLNVLYPENQAAGVAAKKGSLELCEIAESKGYSIDLCAYARTNFGLLENGGCEALDMPAPDFLLCCNNICNQVIKWYENISRELDIPLIMIDTTFNNEDEVTQSRIDYIKAQFEEAIKQLEIISGKKFDPKKFEEVMKISAENGRLWKYSMSLPADSSPSPMNGFDLFTYMAVIVCARGKKETTEAFKLLIEELEDNMKTGKSSFRGEEKYRIMMEGIPCWPYIGYKMKTLAKFGVNMTGSVYPHAWALQYEVNDLDGMAVAYSTMFNNVNLDRMTKYRVDSLVEGKCDGAFYHMNRSCKLMSLIQYEMQRRAAEETGLPYAGFDGDQADPRAFTNAQFETRIQGLVEVMEERKKLNRGEI	not soluble
MGSDKIHHHHHHMKNFVVTTSHKPDREQVMKAKELAEKLGTIYVSRRRLKEFKVDFYYVVEKNRISIKWPGGEFFFHPSSAILRMRNIRSGQKDYLIESLQPEGNEIVLDTTFGLGSEAILMAAFLPEGKVIGLEGSIHIYTIVKYGMENFETDIRWLKDALKRIELYHANFKEYIRSQPDNSFDVVYCDPMFENPVYESSAMNPLRPFAVYDTVNEEDIEEMLRIAKKKVILKSHVKDSLFKRIRVDELKGSRKSGVLYGVIYKR	not soluble
MGSDKIHHHHHHMKPNNWVSSSQATELLSKQLVTWPLAEKNYKALEAVQVKSFDMGGFSIRAQFNPARIVSTGAKVDARSLKERKCFLCPENLPVEQERLPFGFRHLVLCNPYPIFPQHFTIPTRKHTPQLILPQWNDFLELTRRLAPFTVFYNGPRSGASAPDHAHFQAVTRGIMPLDEEVTQFIRQSYASVYDNRIYPLTGNLRPGLVIQAATEEAATRLFKKIYAALPILPGEPEPMMNIFGSYYDNNWVITVIPRKRHRPWQYEAEGNDHLLSSPGAADIGGLFITPLEKDFKKINPELLRDVYQQVCLNDRDVEEIFVHLSSN	not soluble
MGSDKIHHHHHHMKQEFLHIASSLWATVAAQISRHTGQTFAPESLTPIGGGCINQTFCIRDHERQYFVKLNKAGNLAMFESEAAGLGEILDSASLRVPQPLCCGSHHDDAWLVLEFIDLQNRGNAAALGIGLANMHRHTAETFGWIRDNTIGSTPQRNATASDWISFWRQHRLGYQLNLARKNGHTGSLQSLGERLLSEFQHFFTDTLPLPSLLHGDLWGGNYAFDQDGQPVIFDPAVYYGDREADLAMTELFGGFPPDFQAAYRDTWPVETGYTTRKQLYNLYHILNHLNLFGPQYLSQAEITMKKLLAELY	not soluble
MGSDKIHHHHHHMKQIGIIGCGWFGLPLAQALKQLGHKVIGTKRSIEGCEQLASLGITACPLDLNDDIFYNEAFANNTFANNINELLECQVLVINIPPGLRKKAGKAESRYLEQLSNLVHFIGPRGYQKLVFISTTGVYPAGDDAELPLSEADAKAHNDASEILLNAEALFAPMDNSCILRFAGLVGPNRHPGRFFAGKTGISGANVAVNLVHLDDCIGAVIKVINADKTAPVYNIVAPEHPSRGEFYPLATTHLGLVAPVFNQEVMPTKVISGALICQQLGFIYQYPDPLKMLYAC	not soluble
MGSDKIHHHHHHMKQLVGIPESMLIPLIARAKEYENEKPIIKDALSKKIFDGLDDMYKNVTCDDMSQIGISIRTVIIDCVTKRLIKDNKDLIVVNIGCGLDTRFQRFNKEKISWIDLDVPESIEIRKTFFKESNSYKMISKSMLDYSWIDDVKNYKFFNSKSDILFIIEGVLMYFDESVMTQLLDTIIKKMGDHNLTFAIEFCSKTIANNTKRHQSVSKLSSQPVFKYGYNDLKKLNEILPNTIRVIHEYNYFDYYKNRWGLFGYCRFIPYLKKRLNNKIVLMKYKVPKRQRH	not soluble
MGSDKIHHHHHHMKREEIADLMAFVVVAEERSFTRAAARLSMAQSALSQIVRRIEERLGLRLLTRTTRSVVPTEAGEHLLSVLGPMLHDIDSAMASLSDLQNRPSGTIRITTVEHAAKTILLPAMRTFLKSHPEIDIQLTIDYGLTDVVSERFDAGVRLGGEMDKDMIAIRIGPDIPMAIVGSPDYFSRRSVPTSVSQLIDHQAINLYLPTSGTANRWRLIRGGREVRVRMEGQLLLNTIDLIIDAAIDGHGLAYLPYDQVERAIKEKKLIRVLDKFTPDLPGYHLYYPHRRHAGSAFSLFIDRLKYKGAV	not soluble
MGSDKIHHHHHHMKRILVSLYEKEKYLDILRELHEKGWEIWASSGTAKFLKSNGIEANDVSTITGFENLLGGLVKTLHPEIFAGILGPEPRWDVVFVDLYPPPDIDIGGVALLRAAAKNWKKVKPAFDMETLKLAIEIDDEETRKYLAGMTFAFTSVYDSIRANQFVEGISLAFKREDLQLRYGENPHEKAFVYGKPAFEILHEGKTISFNNILDAENAWFMAKNLPRMGAVVVKHQSPCGAAIGEDKVEIVKKAIEADDESSFGGILAVNFEMDEEVAKSLKKYLEVIVAPSFTQEAIEVLSKKKVRLLKPGDYASWAGKMAFGSLVLSERKYPEGNFELVVGEPLSEKELEDLEFAYRVVEGAKSNAVLIAKDGVTVGIGSGQPSRKRAAWIATVMAGEKAKGAVAASDAFFPFPDSLEILAQAGVKAVVAPLGSIRDEEVIEKARELGITFYKAPSRVFRH	soluble
MGSDKIHHHHHHMKRRILFIHNNLGGGGAEGALIEVLNHLDYNRYDVTLFLLYRTGDFIDRVPPQVHFKHEQFGRFFPGYKGKIAIRCGLRNMLLRCCAKRVFANEKYDTIVSFMESAPAKFHSYILDKGKRNITWVHCDLLNNHYTTGFFLTLKQEQKFYSRMDDVIFVSEDAKKNFSKLFGIDKGRVIYNIIDQRAICKRSKAVSSMPRHRTFTFVNVGSLKEIKRQDRIIETAALLKARGYDADFWLIGKGIWEERLKAQATALNVSDSVHFLGFQSNPYPYVAAADVFLMTSDSEGFPLVVAEAMCLGKAVISTRITGPMEMLGNGRYGILTGFSPEEIANSAISLIEDPKLLSSYQHLAYERSISYFDVNGVMTQIHDVIGN	not soluble
MGSDKIHHHHHHMKSLIHCLFLIPLFFVQAHAEVTITLPDSAEPLLLNGKDITSHQLISQNGPQQLVFNARASYREFGQQKRFVSETLIVTFSGENNHYRVSLPKISSPKSAEKFNDVPQIGLTDTQGNKVAYKIDKLLKDGIQIGRNYSEEIKAYNIGQGVAAIAINQPVQMAPSTSSSASSGAASPAATSTALAAQQTTAPQGAQPVGQPTSQPNTQPVSQTGTPRRDQINVGQMLDFWYEQADEATREAFKKRIGLIEQAQRDGH	not soluble
MGSDKIHHHHHHMKSNLFMKRKLEIGLSLLIGTSVFGGCNNDLAPIRQSQTFPPNLNAPTVFESFSPDSGGVKTQLIIRGQNFGTDTAYLKVTVNNKRAAIVGVADDVIYAIVPARADTGYVRLFVGKDDNVEEYASQTKFIYQFKRNVTTLMGRQGQSGRDDGPYAECKLQRPWFALADKDGALFFIDEGRGQNKNGALRRAQEGWVETLVQNSSGPFQSPTCLAFNPKQDTLYISNMSYGSDIKTSFNILYVTREGGFMDVKGLCKFEKAETQGLAVHPQTGEIFFCNKSGGYIYRFNGPDYEDYEPLFQINRADKIDTRMVFNPEGTALFVVVCNRHCIYKVPYNALTHTFGEPELFAGGWDESGYVNGSGVTARFDNPRQPAFDQDGNMFVPEYGRHTIRKITPTGEVSLYAGLPGQAGFTDGLPEKARFNKPECVTVYLDNSLYVADRDNHLIRRVTVE	not soluble
MGSDKIHHHHHHMKTIRIGSGAGYAGDRIEPAVELAQKGDIQYLVFECLAERTIAIGQKQKQQNPEKGYNELLADRMHAVLPLCLEKGIKIITDMGSANPVAAGQRVLEIAKELGADKLKIAIVTGDDVHSVLIAQDSKLDEIGLPISRCGKDILSANAYLGADALVEALRQGADVIIAGRVSDPSLFLSAMMYEFDWAADDWDRLGKGTCLGHLLECAGQITGGYYADPGVKDIPNLDRLGFPIAEITEDGSAVITKVEGSGGCVCVDTCKEQLLYEIHRPDSYITPDVIADFSHVTFTQDGENRVRVQGATGREKTGTLKVSVGYQDGFIGEGEISYAGPGAVARGRLALDIVKGRFALCQLDLQEVRYDLIGVDALHGAQRSQSSEPYEVRARVAARCTSRAQAVKVGNEVETLYTNGPAGGGGVNKSVKEILAMDSTLLSRACVTPAVDYLEIK	not soluble
MGSDKIHHHHHHMKTQQERQPGKIATKFNQEKTREGKKLKIAVVAQDSQYPSTIQRFLAEADKSYPLISLIGGVQQVAAVAEQEQPDLLMLEGQYFSSMELETLNRVTSRFPDVGVVMLCPAQPPELLIEVMRAGVREVLPTPLTRHGVIDAVERFQQRIALSRMPMHECKVLAFIPCKGGSGATFLATNIAYALAAQENKRVALFDFNLQFGDASLFVQDGPPATSIADVARQIQRLDGSFLNSSMIQVLPNFGMLAAPESPEKAAEIRSEHINPLFQVAMKHYDFVILDVGRELDAISIQALDRADLIFPVLQQTLPSIRDARRMSAAFAALNYPDEKIRLIVNRYKKNADITLDDIESTLNLKIFKVVPNDYAVVTGSVNQGIPATKLAPRSPVAKSLQEIAHELCRGAGQGNLLRKLFAF	not soluble
MGSDKIHHHHHHMKTRIVQKQFKRKETKYIVDKKTFELLEKELRQYMMADEFATSTITNIYFDNEDFDMIQDSLAKKNGREKIRMRVYDAIPSESSQAFLEIKKKENKIGYKYRLTSNPVSVANYIENGVIDSTIKDDKVNSELEMLRERYGTIKPKMYIYYDRVSYKGIEDKKVRLTIDKNLLYRDYDVDAMEGKFGKNLLDPTKVIMEVKVPEERPDWLVALLEKYQIEKQSFSKYGNAYKLAHNITGEEVSQHAVV	not soluble
MGSDKIHHHHHHMKTYDWIVVGGGMTGAVLAYELVKTGFSVLLLEKDAVAENATRYSYGGLAYWSGSTPLTRQLCQEARDRYNILPQELDADIELRELDLLLTIPADSDPQVTAELYAQCAVPPCLLSVPEACELELLLNPGAIAGALTVKHGHIHPQKTVQAYIQAFLRAGGELQIGEVSQVTSGGVKTTTVTYHSANVVVCAGGLSRRLLKSVGVSIKVYFTHAEIIETPPVDLRLNTLVMPANLQRFKLESTSTEVDELWNKPGNQLAPPILDAGAIQFLDGSLRLGQISRVLTDVDAYINHEESEDWLRQSISHILPILGNLPGNWHHCLVAFSSNSLPVIGVISELPGVHIFSGFSNPLVLIPPLAQRFAKFLSGTEDDIIPQFSDFLILTGS	not soluble
